Measured values taken from IntAct's records for PubMed 18547396.

B1: Protein TIFY 10A (Arabidopsis thaliana (Mouse-ear cress)), Q9LMA8 (parent)
chain: MSSSMECSEFVGSRRFTGKKPSFSQTCSRLSQYLKENGSFGDLSLGMACKPDVNGTLGNSRQPTTTMSLFPCEASNMDSMVQDVKPTNLFPRQPSFSSSSSSLPKEDVLKMTQTTRSVKPESQTAPLTIFYAGQVIVFNDFSAEKAKEVINLASKGTANSLAKNQTDIRSNIATIANQVPHPRKTTTQEPIQSSPTPLTELPIARRASLHRFLEKRKDRVTSKAPYQLCDPAKASSNPQTTGNMSWLGLAAEI
partner: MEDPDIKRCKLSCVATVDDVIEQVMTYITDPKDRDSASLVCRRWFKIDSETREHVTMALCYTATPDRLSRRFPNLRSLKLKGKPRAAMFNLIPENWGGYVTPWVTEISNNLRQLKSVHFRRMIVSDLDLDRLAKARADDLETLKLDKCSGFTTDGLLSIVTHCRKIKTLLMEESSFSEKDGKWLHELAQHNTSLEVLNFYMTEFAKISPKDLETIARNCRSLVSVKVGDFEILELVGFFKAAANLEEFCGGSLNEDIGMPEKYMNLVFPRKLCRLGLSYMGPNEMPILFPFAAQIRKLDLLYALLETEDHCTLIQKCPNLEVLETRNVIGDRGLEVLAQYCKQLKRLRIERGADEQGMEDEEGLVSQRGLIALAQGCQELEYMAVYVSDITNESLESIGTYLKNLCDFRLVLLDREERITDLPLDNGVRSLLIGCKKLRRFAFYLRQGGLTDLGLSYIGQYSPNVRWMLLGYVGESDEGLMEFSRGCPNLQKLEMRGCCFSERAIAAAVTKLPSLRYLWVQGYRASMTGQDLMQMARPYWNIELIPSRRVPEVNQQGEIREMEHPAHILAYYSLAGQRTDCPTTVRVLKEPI
B2: Protein TIFY 7 (Arabidopsis thaliana (Mouse-ear cress)), Q8W4J8 (parent)
chain: MERDFLGLSDKQYLSNNVKHEVNDDAVEERGLSTKAAREWGKSKVFATSSFMPSSDFQEAKAFPGAYQWGSVSAANVFRRCQFGGAFQNATPLLLGGSVPLPTHPSLVPRVASSGSSPQLTIFYGGTISVFNDISPDKAQAIMLCAGNGLKGETGDSKPVREAERMYGKQIHNTAATSSSSATHTDNFSRCRDTPVAATNAMSMIESFNAAPRNMIPSVPQARKASLARFLEKRKERLMSAMPYKKMLLDLSTGESSGMNYSSTSPT
partner: B1 partner

Variants of: B1
Conditions: with coi1_arath COI1, O04197

Effect of a mutation on the interaction, disrupting interaction:
R206A
R205A
R205A;R206A

Variants of: B2
Conditions: with coi1_arath COI1, O04197

Effect of a mutation on the interaction, disrupting interaction:
K224A
R223A
R223A;K224A
